Results as given in patent US20240287172A1 (SCIRHOM, published 2024).
Where a chain is given by its changes, count along the chain named.

T1: hiR2-FL-K542A-T7 (human, UniProt Q6PJF5 1-856)
T1 sequence: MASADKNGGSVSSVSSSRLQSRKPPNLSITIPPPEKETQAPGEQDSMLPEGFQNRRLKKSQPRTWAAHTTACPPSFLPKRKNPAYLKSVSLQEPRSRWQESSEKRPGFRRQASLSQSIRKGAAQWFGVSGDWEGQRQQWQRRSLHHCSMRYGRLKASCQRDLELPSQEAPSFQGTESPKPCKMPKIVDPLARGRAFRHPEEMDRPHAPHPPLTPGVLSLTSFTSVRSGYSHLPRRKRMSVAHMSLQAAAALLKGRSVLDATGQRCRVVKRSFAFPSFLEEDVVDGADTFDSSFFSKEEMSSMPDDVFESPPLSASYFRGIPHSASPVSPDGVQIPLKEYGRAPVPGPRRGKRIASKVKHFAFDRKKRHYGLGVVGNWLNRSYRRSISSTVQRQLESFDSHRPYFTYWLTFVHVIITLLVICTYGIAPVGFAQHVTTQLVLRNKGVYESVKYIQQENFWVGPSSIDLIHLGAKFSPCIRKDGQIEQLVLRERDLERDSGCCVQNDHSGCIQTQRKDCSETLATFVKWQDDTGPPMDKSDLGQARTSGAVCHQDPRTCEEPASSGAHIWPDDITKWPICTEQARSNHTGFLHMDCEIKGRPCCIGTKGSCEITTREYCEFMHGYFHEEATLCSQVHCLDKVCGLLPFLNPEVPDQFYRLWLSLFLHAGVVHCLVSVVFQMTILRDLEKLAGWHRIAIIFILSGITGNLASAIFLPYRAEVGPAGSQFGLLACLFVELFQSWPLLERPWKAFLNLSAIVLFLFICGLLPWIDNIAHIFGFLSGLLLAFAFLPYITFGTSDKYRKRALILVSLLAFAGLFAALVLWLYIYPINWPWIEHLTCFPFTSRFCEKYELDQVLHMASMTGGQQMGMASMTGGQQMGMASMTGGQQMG

T2: hiR2-FL-N503A-T7 (human, UniProt Q6PJF5 1-856)
T2 sequence: T1 sequence with N503A, A542K

B1: antibody 16 (antibody, V domains shown)
VH: QVTLKESGPGILQPSQTLSLTCSFSGFSLSTFALGVGWIRQPSGRGLEWLAHIWWDDDKYYNPALKSRLTISKDTSKNHVFLKIANVDTADTATYYCARITTYYYGMDYWGQGTSVTVSS
VL: DIVLSQSPATLSVTPGDSVSLFCRASQSIGNHLHWYQQESHASPRLLIKYASQSISGIPSRFSGSGSGTDFTLSINSVETEDFGMYFCQQSYNWPLTFGAGTKLELK
notes: mouse IgG, kappa light chain; also called clone #16; purified antibody 16
B2: antibody 3 (antibody, V domains shown)
VH: QVTLKESGPGILQPSQTLSLTCSFSGFSLTTFAMGIGWVRQPSGKGLEWLAHIWWDGEKYNNPVLKSRLTISKDTSKNQVFLRIANVDTPDTATYYCARISSIYYIIDNWGQGTSVTVSS
VL: B1 VL with S5T, D17H, F22S, G30S, H32N, Q38K, E39K, A42E, A51V
notes: mouse IgG, kappa light chain; also called clone #3; purified antibody 3
B3: antibody 48 (antibody, V domains shown)
VH: QVQLQQSGTELVRPGTSVKVSCKASGYAFTNYLIEWVKQRPGQGLEWIGVINPGSGFTKYNEKFKGKATLTADKSSSTVYMHLSSLTSEDSAVYFCARGLYRAMDYWGQGTSVTVSS
VL: DIQMTQSPASQSASLGESVTITCLASQTIATWLAWYQQKPGKSPQLLIYGATTLADGVPSRFSGGGSGTKFSFKISSLQAEDFVSYYCQQLYSTPYTFGGGTKLEIK
notes: mouse IgG, kappa light chain; also called clone #48; purified antibody 48
B4: antibody 50 (antibody, V domains shown)
VH: B3 VH with T9A, T16A, T30S, V79A, H82Q
VL: B3 VL with A30G, G50A, T52A, T53S, S85N, L91I
notes: mouse IgG, kappa light chain; also called clone #50; purified antibody 50

Experiments:
hiR2-FL-K542A-T7 = target: T1, hiR2-FL-K542A-T7; assay: FACS on MEF-DKO cells expressing the variant, 3 µg/ml antibody
Procedure, shortened: (§1)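 Two incubations on ice, each 1 hour: test antibody (3 μg/ml) or FACS buffer only, then PE anti-mouse F(ab′)2 at 1:100 in the dark. Centrifugation and washes used 4° C; staining quantified on a flow cytometer.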

hiR2-FL-N503A-T7 = target: T2, hiR2-FL-N503A-T7; assay: as above
Procedure, shortened: as §1

| Binder | loss of binding vs wild type (hiR2-FL-K542A-T7) [%] | loss of binding vs wild type (hiR2-FL-N503A-T7) [%] |
| --- | --- | --- |
| B1 | ≥ 30 |  |
| B2 | ≥ 60 |  |
| B3 |  | ≥ 30 |
| B4 |  | ≥ 30 |
